Reference: the supplement of paper PMC9170038

Test system: MS2 coat protein
Experiment: apparent KD of MS2 coat protein; higher = weaker reporter binding
Conditions: Eterna round: R101
Procedure: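 RNA-MaP: designed FMN/MS2 RNA switches (84 nt design region) are transcribed on-chip within common flanks and titrated with SNAP-549-labelled MS2 coat protein (about 1-3000 nM) in 100 mM Tris pH 7.5, 80 mM KCl, 4 mM MgCl2, without or with 200 uM FMN. Median apparent KD per design; activation ratio = KD,OFF / KD,ON.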

| Sequence | apparent KD of MS2 coat protein (input ligand: FMN 200 uM) [nM] | apparent KD of MS2 coat protein (input ligand: none) [nM] |
| --- | --- | --- |
| AAUUAAAUCCUAGGAUAUGACUCCGAAACGGAGUCAGAAGGAGGAUCACCCUUUCAAAGCUCAGCGUCGAAAGACGCUGAGCAA [#SharedSequence - ExNG1-17] (puzzle (switch architecture): Exclusion NG 1) | 82.9 | 649 |
| ACACAUGAGGAUCACCCAUGUAGCCGGCGUCUGCGCCAGCCACAGGAUAUACGGCAACACAAGCCGUAGAAGGGUGAUAAACAC [Lalearledi] (puzzle (switch architecture): Same State NG 3) | 33.9 | 49.1 |
| AGAGCUGCUCAGAAGGAGGAUCACCCUUUCGAAAGAAAUACGGAGGCUGAAAAGCCUCCGAGAUUUUAGGAUAUGAGCAGCUCA [#SharedSequence - IExNG2: 8] (puzzle (switch architecture): Inverted Exclusion NG 2) | 89.1 | 74.5 |
| AGCUAUGACAUGAGGAUCACCCAUGUAUACAUGGGAUUGACGUAGGAUAUGCUGAAGAUUAAAGUGCAGAAGGACGGCUUAGCG [JR #DistanceFar #Hairpin #NP SSNG3 Sub065] (puzzle (switch architecture): Same State NG 3) | 512 | 1250 |
| AUCAGCUCGUGAGGAUAUACGUCACUGCGUCAGCAGUGUGGUAAGAUCACAUGAGGAUCACCCAUGUAGAAGGCACGAGCUGAU [#FlippingAptamerGcClosingBasepair - Ex NG2 #82] (puzzle (switch architecture): Exclusion NG 2) | 539 | 23.6 |
| CACCUAAAUCCUAGAGGAUCACCCUAGGAUAUCACCGUCGAGGUGCCAUAAUGGCACCUCGACGGUGAGAAGGAGGAAAAAUAA [#SharedSequence - SLExNG3: 10] (puzzle (switch architecture): Small Loop Exclusion NG 3) | 5.85 | 4.95 |
| CACCUAAAUCCUAGAGGAUCACCCUAGGAUAUCACCGUCGAGGUGCCAUAAUGGCACCUCGACGGUGAGAAGGAGGGUGAAAUA [#SharedSequence - SLExNG3: 8] (puzzle (switch architecture): Small Loop Exclusion NG 3) | 6.49 | 5.08 |
| CCGACGUUUCAGAAGGCACUCGCAUAAUGCGAGUGAGGAUAUGAGGAUCACCCAUAUCAUCGUCGGAGUCACCGAAACGGUGAC [#SharedSequence - IEx NG 3-2] (puzzle (switch architecture): Inverted Exclusion NG 1) | 12.4 | 7.89 |
| CCUGCACCUCAAGGAUAUCCAGUCGUUUCGACUGGAGAAGGUGAGGAUCACCCAUCUAGCCUGACGUUUGUCAGGCAUGCAGGU [#AddUracilToBrourdLoops 5 - Jieux - Exclusion NG1] (puzzle (switch architecture): Exclusion NG 1) | 929 | 398 |
| CGCAUAGACAUGAGGAUCACCCAUGUAUAAAUAGGAUUAACGUAGGAUAUGCAGAAGAUUAAAGUGCAGAAGGACGGCUUUGCG [JR #DistanceFar #NP SSNG3 Sub070] (puzzle (switch architecture): Same State NG 3) | 7.52 | 11.5 |
| CGCUAUUACAUGAGGAUCACCCAUGUAUAUAUGGGAUUUUCGUAGGAUAUGCAGAAGAUUAAAGUGCAGAAGGACGGAAUAGCG [JR #DistanceClose #Static #NP SSNG3 Sub066] (puzzle (switch architecture): Same State NG 3) | 31.9 | 46.9 |
| CUGGUUGUCGUAGGAUAUGUAGGAUAUUCCUACAUGAGGAUCACCCAUGUUCGCAUGGAAGAAGGACAGAAGGACGAUGACCAG [salish99_SSNG2_013 #endbits investigation] (puzzle (switch architecture): Same State NG 2) | 9.22 | 1320 |
| CUUACUUUGUAGAAGGGUGACAUGAGGAUCACCCAUGUGCGUCGCCUGGAAGACCAGGGUACGCCACAGGAUAUACAAAGUAAG [Gesoesla] (puzzle (switch architecture): Inverted Same State NG 2) | 113 | 119 |
| GAAAUAUAGUCAGGAUAUCAGGACAUGAGGAUCACCCAUGUACUGAAUGGGCUGGUGAAAAGAGAUGAGAAGGGACACACUAGA [EternaBot874] (puzzle (switch architecture): Exclusion NG 2) | 5.79 |  |
| GCAGCUAAUGCAGGAUAUCAGCACGUGUAGUGCUGAGAAGGGCACAUGAGGAUCACCCAUGUGAUCAAUUAAUAUUAAUGCUGC [jl-eng1-3.00 #ENG1/11-B3_NECK] (puzzle (switch architecture): Exclusion NG 1) | 41.6 | 13 |
| GCAGCUAAUGCAGGAUAUCAGCACGUGUAGUGCUGAGAAGGGCACAUGAGGAUUCUGACUGUGAUCAAUUAAUAUUAAUGCUGC [salish99#hingeEx3_55-58_005] (puzzle (switch architecture): Exclusion NG 1) | 14.8 | 29.2 |
| GCCAUCGCAUGAGGAUAUGCUCGGGUUUCCCGAGCAGAAGGCAUGUCAUAAGACAUGAGGAUCACCCAUGUAGUUAAGAUGGCA [#HiddenHairpinInALoop - Mat - Same State NG 1 - JL mod - D3] (puzzle (switch architecture): Same State NG 1) | 12.7 | 289 |
| GGAGAAACAUGAGGAUCACCCAUGUAGGAUAUCGGGCCCGGGCCCGGCGAAAGCCGGGCCCGGGACGAGAAGGGCGUAAACACC [#LOL] (puzzle (switch architecture): Small Loop Exclusion NG 3) | 8.72 | 8.74 |
| GGCAGCACUUAGAAGGGAGUGCGAUAAUCGCACUCAGGAUAUGAGGAUCACCCAUAUCAAGCUGCCACUGAGGCAAAGCCUCAG [#SharedSequence - IEx NG 4-1] (puzzle (switch architecture): Inverted Exclusion NG 1) | 9.42 | 10.6 |
| GGGUACAUCGGAGGAUAUCAUGUAAAUACAUGAGGAUCACCCAUGUCGAUGGAGACAUCGGAGAUUGAGAAGGCCGAUGUACCG (puzzle (switch architecture): Same State NG 2) | 8.42 | 159 |
| GGGUACAUCGGAGGAUAUCAUGUAAAUACAUGAGGAUCACCCAUGUCGAUGGAGACAUGGGAGAUUGAGAAGGCCGAUGUACCG (puzzle (switch architecture): Same State NG 2) | 31.7 | 22.5 |
| GGUCGUCACAUUAACAUGAGGAUCACCCAUGUCAAAAGACAUGAGGAUAUGCAUCCUAAUUGGAUGCAGAAGGCAUGGACGACC (puzzle (switch architecture): Same State NG 3) | 12.5 | 216 |
| GUUGGAUUUCAGAAGGGCUCCAGCAAAGCUGGAGCAGGAUAUGAGGAUCACCCAUAUCAAUCUCCAGAAUUGAUAUGAAUCAAU [#SharedSequence - IExNG1: 9-1] (puzzle (switch architecture): Inverted Exclusion NG 1) | 317 | 29.2 |
| UAAAUAAAUCCUAGAGGAUCACCCUAGGAUAUCACCGUCGAGGUGCCAUAAUGGCACCUCGACGGUGAGAAGGAGGAAAAUAAA [#SharedSequence - SLExNG3: 4] (puzzle (switch architecture): Small Loop Exclusion NG 3) | 6.64 | 6.46 |
| UAAUCUCGAGCCGACGGGAGAUUACAUGAGGAUCACCCAUGUGAGGAUAUCCCUGAGAAGACGGCGGAGAAGGCACUGGGUAGG [Diraoran] (puzzle (switch architecture): Exclusion NG 3) | 18.3 | 9.79 |
| UAUAAUCUUUAAGGAUAUCAGUGGCUUUGCCACUGAGAAGGUGAGGAUCACCCACCUACGUGACCCUGGUUUCAGGGUCACGAU [#AddUracilToBrourdLoops 10 - Jieux - Exclusion NG1] (puzzle (switch architecture): Exclusion NG 1) | 11.6 | 10 |
| UAUUAUAUGGAGAAGGACAUGAGGAUCACCCAUGUCGCCGGGCCCGGGAAACCGGGCCCGGCCAUGUAGGAUAUCCAUAUGGUA [#This is a good prank 6] (puzzle (switch architecture): Inverted Exclusion NG 2) | 5.41 | 4.78 |
| UCAGUAGAGUCAGGAUAUACAAAAGGCGAUCCAUACAUGAGGAUCACCCAUGUAGAAGGGACUCUACUGUAAGUCGGAAACGAC [#StaticStemDeletion - Eli x2 4.003] (puzzle (switch architecture): Small Loop Exclusion NG 1) | 11.6 | 165 |
| UCAUUUAUCACAGGAUAUAUUAGUAUACAGUUGUUUGGUUAUUACAUAUUAAUAGAAGGGUGAAACAUGAGGAUCACCCAUGUA [S-loop S-stateNG1 03] (puzzle (switch architecture): Small Loop Same State NG 1) | 113 | 367 |
| UCUUAAUUGUAGAAGGGUGACAUGAGGAUCACCCAUGUGCACGCGCGAUUUACGGCGCGCGUGCCACAGGAUAUACAGUUGGGU [Erinquve] (puzzle (switch architecture): Inverted Same State NG 2) | 12.1 | 41.1 |
